In article doi:10.1101/2022.02.17.480908:

Target: urea pre-unfolded MLucV (stable small aggregates) (firefly)
Test: SEC-RALS

## urea pre-unfolded MLucV (stable small aggregates)
  stoichiometry N: 12
